B1: PB1413-421 peptide (peptide)
peptide: NMLSTVLGV
modifications: not checked
B2: BHA543-551 peptide (peptide)
peptide: GLDNHTILL
modifications: not checked

Target: HLA-A*02:01 molecule (as used for thermal stability and structures) (human)
Experiment: thermal stability of the peptide-HLA-A*02:01 complex

Binder	Tm (temperature required to unfold 50% of the protein) of the pHLA-A*02:01 complex [° C.]
B1	72
B2	72
